For this assay, the target named is UNG2 S23D/T60D/S64D (human) (UniProt P13051). As to the kind of experiment: co-IP.
Chain of UniProt P13051 (P13051 whole entry S23D/T60D/S64D): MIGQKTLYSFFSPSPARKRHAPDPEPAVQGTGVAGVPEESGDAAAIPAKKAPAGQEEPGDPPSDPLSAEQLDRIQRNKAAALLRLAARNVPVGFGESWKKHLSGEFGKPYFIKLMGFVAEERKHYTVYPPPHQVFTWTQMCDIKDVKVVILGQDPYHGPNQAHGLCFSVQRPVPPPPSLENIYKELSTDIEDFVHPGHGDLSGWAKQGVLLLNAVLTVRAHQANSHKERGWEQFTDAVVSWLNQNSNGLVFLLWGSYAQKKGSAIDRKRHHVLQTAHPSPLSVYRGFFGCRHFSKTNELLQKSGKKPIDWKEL

Substance “replication protein A (RPA) (from UniProt P15927 1-270) (complex)” gave an RPA-binding capacity relative to WT UNG2 of 40%.
